{
  "source": "patent CN108424448A",
  "about": "(UNIV ZHEJIANG, dated 2018)",
  "binders": {"B1": {"name": "抗埃博拉病毒VP40蛋白单克隆抗体F1B4 (antibody, V domains shown)", "VH": "EVRLQQSGPELGKPGASVKISCKTSGYVFTEYTIHWMKQSHGKSLEWIGNIYPKNGGTAYSQKFKGRATLSADKSSRTAYIELRSLTSEDSAVYYCARDNYGFDCWGQGTTLTVSS", "VL": "not shown"}},
  "target": "ZEBOV-VP40蛋白C端的特异的抗原肽13肽 […] (扎伊尔型埃博拉病毒 (Zaire ebolavirus))",
  "assay": "indirect ELISA on coated VP40 peptide (hybridoma screening, P/N≥2.1 positive)",
  "data": [
    {"binder": "B1", "values": [
      {"measurement": "binding result", "result": "binds"}
    ]}
  ]
}
